Publication PMC6715736

Biological target: T1, His6-RacR (Escherichia coli JM83 (Rac prophage)) (UniProt P76062)
T1 sequence: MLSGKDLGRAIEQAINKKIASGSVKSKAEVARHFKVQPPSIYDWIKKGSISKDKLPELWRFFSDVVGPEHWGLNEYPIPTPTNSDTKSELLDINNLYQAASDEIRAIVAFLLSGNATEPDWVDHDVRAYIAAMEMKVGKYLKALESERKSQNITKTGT
Test: EMSA
Conditions: EMSA: 10 mM Tris-HCl pH 8.0, 1 mM EDTA, 0.1 M NaCl, 0.1 mM DTT, 5% glycerol, 10 ug/mL BSA, 50 ug/mL poly(dI-C), 28 C 40 min; 6% PAGE in 0.5x TBE

With “GGTTCATCTCGGCTCCTGCTGCGGCGGTTGTCTTCGCGGATTTTGAAATAGAGATTTGTCAGATACGTCATTACGGCAATGATGATACCCACCAGCACGCCGATAGCGTTCCACTGCTCGGGGCTGTAGGCATTCAACATGCCGTTTAGGATGCTCCCGGCTGAAGCGCCATAGGCAGCACCAGTGGTTAGTTTGTCCATGCGATACATACTCTCACCTCGCTTTGTGCGAGTGCTGTTGCT (double strand) [lysN* probe]” the binding was “binds”.
